In the supplement of paper PMC9876800:

Tested on: peptide library, one residue held at a place counted from the S/T acceptor
Assay: relative phosphorylation of the sub-library (ratio to the mean residue at this position); higher = residue favoured
Outline: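 Purified recombinant kinases, either human or orthologue constructs, were incubated in 384-well plates with biotinylated degenerate peptide sub-libraries. Each sub-library fixed one residue at one position around a central Ser/Thr. Peptides at 50 μM and 50 μM ATP spiked with γ-32P-ATP were used for 90 min under kinase-specific conditions, and spots on streptavidin membranes were phosphorimaged and quantified by densitometry. Relative sub-library phosphorylation is expressed as a ratio to the mean residue at that position.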

Chain of CLK1, construct: aa128-end, human (P49759 128-484, looked up): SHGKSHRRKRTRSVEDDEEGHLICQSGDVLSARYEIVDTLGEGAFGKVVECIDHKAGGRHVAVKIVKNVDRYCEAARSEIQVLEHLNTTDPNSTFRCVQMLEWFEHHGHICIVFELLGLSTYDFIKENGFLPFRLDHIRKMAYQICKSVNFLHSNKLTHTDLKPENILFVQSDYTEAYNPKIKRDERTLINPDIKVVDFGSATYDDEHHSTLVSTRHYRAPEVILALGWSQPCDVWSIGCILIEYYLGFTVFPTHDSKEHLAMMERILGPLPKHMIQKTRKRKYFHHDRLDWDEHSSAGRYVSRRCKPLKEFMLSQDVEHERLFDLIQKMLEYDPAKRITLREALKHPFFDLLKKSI
Chain of CDK8, construct: Full length*, human (P49336 whole entry, looked up): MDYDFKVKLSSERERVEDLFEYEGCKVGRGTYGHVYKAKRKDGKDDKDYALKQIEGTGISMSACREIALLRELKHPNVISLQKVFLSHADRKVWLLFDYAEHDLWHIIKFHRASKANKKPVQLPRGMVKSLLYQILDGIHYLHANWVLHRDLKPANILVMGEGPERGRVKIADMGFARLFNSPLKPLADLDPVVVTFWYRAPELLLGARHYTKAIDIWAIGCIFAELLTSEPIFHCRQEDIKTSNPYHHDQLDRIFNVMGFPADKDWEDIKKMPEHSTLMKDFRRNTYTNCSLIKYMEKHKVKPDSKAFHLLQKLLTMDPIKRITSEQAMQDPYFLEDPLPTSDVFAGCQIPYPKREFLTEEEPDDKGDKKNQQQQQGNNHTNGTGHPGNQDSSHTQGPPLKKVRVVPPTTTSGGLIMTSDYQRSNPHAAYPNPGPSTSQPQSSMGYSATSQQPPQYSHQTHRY
Chain of CLK4, construct: aa128-481, human (Q9HAZ1 128-481, looked up): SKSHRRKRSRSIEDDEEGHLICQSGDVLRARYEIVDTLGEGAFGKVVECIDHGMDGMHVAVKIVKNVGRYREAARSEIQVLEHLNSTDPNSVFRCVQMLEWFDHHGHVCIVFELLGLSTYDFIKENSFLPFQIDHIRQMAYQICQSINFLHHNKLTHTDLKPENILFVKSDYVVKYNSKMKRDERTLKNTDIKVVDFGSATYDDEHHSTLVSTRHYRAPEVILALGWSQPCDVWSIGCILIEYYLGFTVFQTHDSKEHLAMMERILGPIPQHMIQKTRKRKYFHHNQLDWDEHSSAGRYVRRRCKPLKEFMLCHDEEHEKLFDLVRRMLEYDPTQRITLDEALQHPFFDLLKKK
Chain of CDK7, construct: Full length, human (P50613 whole entry, looked up): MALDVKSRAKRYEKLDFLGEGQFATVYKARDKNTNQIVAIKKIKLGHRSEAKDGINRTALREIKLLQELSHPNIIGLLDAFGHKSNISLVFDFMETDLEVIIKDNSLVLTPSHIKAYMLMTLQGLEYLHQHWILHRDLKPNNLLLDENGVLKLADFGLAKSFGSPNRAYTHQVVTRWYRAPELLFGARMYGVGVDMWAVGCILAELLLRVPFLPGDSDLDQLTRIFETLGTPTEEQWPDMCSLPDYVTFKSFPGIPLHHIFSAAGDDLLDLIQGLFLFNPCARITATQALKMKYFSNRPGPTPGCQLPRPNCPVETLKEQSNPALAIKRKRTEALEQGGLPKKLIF

CDK7, construct: Full length, human (from UniProt P50613)
relative phosphorylation
Conditions	at +1	at +2	at +3	at +4	at -1	at -2	at -3	at -4	at -5
A fixed	0.369	1.2	1.11	0.982	0.638	1.14	1.06	1.05	1.12
D fixed	0.303	0.747	0.502	0.558	0.367	0.385	0.671	0.621	0.658
E fixed	0.274	0.589	0.433	0.506	0.276	0.408	0.598	0.586	0.518
F fixed	0.271	0.709	1.05	1	0.977	0.484	0.676	0.812	1.01
G fixed	0.981	1.34	1.04	1.22	0.999	0.965	1.44	1.24	1.12
H fixed	0.317	1.06	1.02	1.24	0.9	0.586	0.936	1.16	1.36
I fixed	0.339	0.81	0.854	0.956	0.385	1.28	0.647	0.734	0.728
K fixed	0.288	1.13	0.904	0.814	1.27	0.802	1.26	1.25	1.3
L fixed	0.33	0.774	1.05	0.932	1.04	1.18	0.608	0.81	0.863
M fixed	0.333	0.871	1.02	1.04	1.09	0.978	0.793	0.975	0.878
N fixed	0.449	1.13	0.826	0.937	0.602	0.818	0.949	1.11	0.986
P fixed	11.1	1.57	1.34	1.18	1.02	3.51	2	1.37	1.07
Q fixed	0.354	1.04	0.831	1.07	0.919	0.781	1.06	1.03	0.845
R fixed	0.294	1.36	0.624	0.727	1.56	1.14	1.87	1.31	1.22
V fixed	0.417	0.9	1.04	0.878	0.62	1.3	0.842	0.681	0.693
W fixed	0.304	0.802	1.32	1.47	3.04	0.639	0.774	1.16	1.49
Y fixed	0.283	0.982	2.04	1.48	1.29	0.605	0.825	1.1	1.14
pThr fixed	0.469	0.566	0.573	0.503	0.352	0.645	0.713	0.697	0.612
pTyr fixed	0.357	0.583	0.641	0.713	0.475	0.37	0.568	0.63	0.522

CDK8, construct: Full length*, human (from UniProt P49336)
relative phosphorylation
Conditions	at +1	at +2	at +3	at +4	at -1	at -2	at -3	at -4	at -5
A fixed	0.287	1.26	1.05	1.01	1.02	1.65	1.08	0.959	0.86
D fixed	0.179	0.789	0.841	1.19	0.791	0.579	0.887	1.18	1.4
E fixed	0.16	0.729	0.743	0.882	0.556	0.602	0.934	1.21	1.32
F fixed	0.26	0.84	0.734	0.893	1.03	0.43	1.04	1.1	1.33
G fixed	0.807	1.31	1.47	1.15	1.47	0.849	1.29	0.931	0.883
H fixed	0.408	1.03	1.12	1.06	0.982	0.643	0.947	1.08	1.01
I fixed	0.463	0.891	0.735	1.04	0.286	1.06	0.684	0.944	0.864
K fixed	0.239	1.11	0.649	0.698	1.03	0.309	0.592	0.842	0.747
L fixed	0.291	1.02	0.694	0.949	1.04	0.936	0.683	0.91	0.911
M fixed	0.36	1.12	1.02	0.955	1.44	1.05	1.48	1.05	0.78
N fixed	0.51	0.899	1.39	0.862	0.866	0.697	1.25	0.836	0.887
P fixed	10.9	0.801	1.91	1.09	1.37	4.62	1.23	0.923	0.896
Q fixed	0.369	1.13	1.03	0.977	1.02	0.876	1.16	0.941	0.917
R fixed	0.231	1.26	0.878	0.847	1.28	0.413	0.631	0.829	0.858
V fixed	1	0.807	0.977	1.09	0.559	1.31	0.698	0.847	0.813
W fixed	0.306	1.02	0.802	1.38	1.19	0.505	1.31	1.21	0.872
Y fixed	0.241	0.976	0.942	0.926	1.07	0.466	1.09	1.21	1.65
pThr fixed	0.423	0.473	0.694	0.882	0.312	0.668	0.74	1.11	0.898
pTyr fixed	0.43	0.934	0.886	0.851	0.758	0.614	0.745	1.13	1.11

CLK1, construct: aa128-end, human (from UniProt P49759)
relative phosphorylation
Conditions	at +1	at +2	at +3	at +4	at -1	at -2	at -3	at -4	at -5
A fixed	0.598	1.12	0.654	0.682	0.844	2.56	0.707	0.901	0.836
D fixed	0.144	0.577	0.507	0.907	0.327	0.602	0.306	0.506	0.591
E fixed	0.488	0.614	0.409	0.937	0.393	1.54	0.309	0.636	0.666
F fixed	0.442	0.909	0.713	1.01	0.669	0.339	0.317	0.87	1.86
G fixed	0.498	0.93	0.782	0.916	0.988	1.17	0.427	0.877	0.877
H fixed	0.56	1.23	1.01	0.915	0.822	0.482	0.634	1.02	0.956
I fixed	1.22	0.828	0.552	0.678	0.538	0.257	0.383	1.03	0.9
K fixed	0.704	1.53	3.14	1.47	2.35	0.993	2.66	1.8	1.49
L fixed	0.897	0.926	0.665	0.884	1.01	0.467	0.381	1.01	0.943
M fixed	0.839	0.985	0.633	0.907	0.999	0.427	0.394	0.866	0.891
N fixed	0.345	0.832	0.842	0.959	0.717	0.605	0.407	0.776	0.746
P fixed	5.99	1.18	1.84	0.92	0.993	0.588	0.368	0.725	0.839
Q fixed	0.739	0.875	0.854	1.19	1.02	0.936	0.598	0.871	0.742
R fixed	0.697	1.94	2.42	1.76	2.84	5.04	8.11	2.33	1.82
V fixed	1.95	1.08	0.627	0.722	0.667	0.345	0.325	0.92	0.809
W fixed	0.388	0.695	0.687	1.24	0.961	0.343	0.328	0.963	0.971
Y fixed	0.505	0.757	0.673	0.913	0.862	0.314	0.344	0.89	1.06
pThr fixed	0.711	1.62	0.67	1.58	0.273	0.444	0.355	0.642	0.501
pTyr fixed	0.383	0.451	0.856	0.874	0.523	0.283	0.321	0.748	0.76

CLK4, construct: aa128-481, human (from UniProt Q9HAZ1)
relative phosphorylation
Conditions	at +1	at +2	at +3	at +4	at -1	at -2	at -3	at -4	at -5
A fixed	0.617	1.09	0.764	0.712	0.792	1.63	0.609	0.923	0.926
D fixed	0.293	0.989	0.691	1.07	0.403	0.553	0.453	0.649	0.735
E fixed	0.565	0.943	0.592	1.1	0.48	1.52	0.374	0.721	0.595
F fixed	0.435	0.928	0.771	0.91	0.705	0.337	0.327	0.858	1.39
G fixed	0.628	1.04	0.925	0.889	0.975	0.943	0.553	1.09	1.02
H fixed	0.7	1.28	1.1	1.06	1.18	0.546	0.709	0.979	1.05
I fixed	1	0.795	0.61	0.869	0.55	0.343	0.332	0.857	0.786
K fixed	0.807	1.36	2.5	1.26	2.09	0.978	2.16	1.72	1.47
L fixed	0.784	0.877	0.731	0.8	0.935	0.461	0.394	0.781	0.891
M fixed	0.727	0.837	0.717	1.02	1.04	0.443	0.429	0.884	0.69
N fixed	0.498	0.804	0.822	0.935	0.865	0.42	0.476	0.807	0.881
P fixed	5.64	1.21	2.04	0.901	1	0.453	0.405	0.806	0.909
Q fixed	0.793	0.929	0.795	1.07	1.12	0.717	0.509	0.839	0.827
R fixed	0.853	1.33	1.7	1.28	2.36	6.56	8.11	2.25	1.82
V fixed	1.59	1.04	0.67	0.772	0.704	0.386	0.331	0.755	0.771
W fixed	0.486	0.754	0.763	1.25	0.895	0.348	0.429	1.1	1.24
Y fixed	0.574	0.792	0.8	1.1	0.89	0.356	0.399	0.973	1
pThr fixed	0.796	1.92	0.773	2.01	0.343	0.467	0.603	0.846	0.81
pTyr fixed	0.516	0.647	1.52	1.16	0.546	0.295	0.356	0.732	0.938
